Laboratory results as given in publication PMC6754583.

Molecular target: full-length von Willebrand factor (VWF) dimer, hetero-bifunctional construct (UniProt P04275)
Assay: magnetic tweezers single-molecule force spectroscopy

For “full-length von Willebrand factor (VWF) dimer, hetero-bifunctional construct (from UniProt P04275 764-2813; P04275 764-2813) (natural protein)”, the mean dwell time between stem transitions (fits to individual datasets) was 0.28 s, the mean dwell time between stem transitions (global fit) was 0.28 s and the midpoint force F1/2 of stem opening was 1 pN.
